# Residue numbers refer to the chain shown, from its start.
# B1: PSMB1157 (antibody, human IgG1, lambda, V domains shown)
# VH: EVQLVESGGGVVQPGRSLRLSCAASVRTFSGYGMHWVRQVPGKGLEWVAVISYDGSNRYYADSVKGRFTISRDNSKNTLYLQMNSLRTEDTAVYYCARDGNWGSLDLYFDLWGRGTLVTVSS
# VL: QSVLTQPPSVSGAPGQRVTISCTGSSSNIGADYDVHWYQQLPGTAPKLLIYVNNNRPSGVPDRFSGSRSGTSASLAITGLQADDEADYYCQSYDNTLSGVVFGGGTKLTVLG
# notes: huIgG1, lambda light chain
# B2: PSMB1156 (antibody, human IgG1, lambda, V domains shown)
# VH: EVQLVESGGGVVQPGRSLRLSCAASGFTFTSYGMHWVRQAPGKGLEWVAVISYDGSNKYYADSVKGRFTISRDNSKNTLYLQMNSLRAEDTAVYYCAREHYDSSGYYHGYYGMDVWGQGTTVTVSS
# VL: not shown
# notes: huIgG1, lambda light chain
# B3: PSMB1154 (antibody, human IgG1, lambda, V domains shown)
# VH: EVQLVESGGGEVQPGRSLRLTCAVSGFTLSRYGMHWVRQAPGKGLEWAALISYDGSNRYYADSVKGRFTISRDNSKNTVFLQMNSLRAEDTAVYYCARERESSGWFEGYFDYWGQGTTVTVSS
# VL: QLVLTQPPSVSVAPGQTARITCGGNNIGSKSVHWYQQKPGQAPVLVVYDNSDRPSGIPERFSGSNSGNTATLTISRVEVGDEADYYCQVWDSSSDHVVFGGGTKLTVLG
# notes: huIgG1, lambda light chain
# B4: PSMB1088 (antibody, human IgG1, kappa, V domains shown)
# VH: EVQLVESGGGVVQPGRSLRLSCAASGFTFSSYDMHWVRQAPGKGLEWVTVISFDGSNKYYVDSVKGRFTISRDNSKNTLYLQMNSLRAEDTAVYYCARTYYDILTGYSHYSYGMDVWGQGTTVTVSS
# VL: EIVMTQSPSSLSASVGDRVTITCRASQGISNYLAWYQQKPGKVPKLLIYATSTLQSGVPSRFSGSGSGTDFILTISSLQPEDVANYYCQKYNSAPFTFGPGTKVEIKR
# notes: huIgG1, kappa light chain
# B5: PSMB1113 (antibody, human IgG1, kappa, V domains shown)
# VH: EVQLVESGGGLVKPGGSLRLSCAASGFTLSIYSMNWVRQAPGKGLEWVSSISSSSSYIFYADSVKGRFTISRDNAKNSLFLQMNSLRAEDTAVYYCARSSYGADYWGQGTLVTVSS
# VL: B4 VL with G28D, S30T, Y32F, A50T, T51A, I72T, N85T, F96L, P100G, V104L
# notes: huIgG1, kappa light chain
# B6: PSMB1183 (antibody, human IgG1, lambda, V domains shown)
# VH: QVQLQESGPGLVKSSETLSLTCTVSGGSISSYYWNWIRQPAGKGLEWIGRIYSSGNTDYNPSLKSRVTMSVDTSKNQFSLKLISVTAADTAVYYCARGRGANVGLFDYWGQGTLVTVSS
# VL: QSALTQPPSVSGAPGQRVTISCTGSNSNIGANYDVHWYQHLPGTAPKLLIYGNINRPLGVPDRFSGSRSGTSASLAITGLQAEDEADYYCQSYDFSLSGSVFGVGTKLTVLG
# notes: huIgG1, lambda light chain
# B7: PSMB1195 (antibody, human IgG1, kappa, V domains shown)
# VH: EVQLVESGGGLVKPGGSLRLSCAASGFTFSSYSLNWVRQAPGKGLEWVSSISSSSSYISYADAVKGRFTISRDNAKNSLYLQMNSLRAEDTAVYYCARDRGFLEDYYYYYGMDVWGQGTTVTVSS
# VL: DIVMTQSPSSVSASVGDRVTITCRASQGISNWLAWYQQKPGKAPKLLIYVASSLQSGVPSRFSGSGSGTDFSLTISSLQPEDFATYYCQQAYSFPLTFGGGTKVEIKR
# notes: huIgG1, kappa light chain
# B8: PSMB1098 (antibody, human IgG1, kappa, V domains shown)
# VH: QVQLVESGGGVVQPGRSLRLSCAASGFTFSTYGMHWVRQAPGKGLEWVAFISYDGSNKYYADSVKGRFTISRDNSKHTLYLQMNSLRAEDTAVYYCAGRDNLRFLEWFMDVWGQGTTVTVSS
# VL: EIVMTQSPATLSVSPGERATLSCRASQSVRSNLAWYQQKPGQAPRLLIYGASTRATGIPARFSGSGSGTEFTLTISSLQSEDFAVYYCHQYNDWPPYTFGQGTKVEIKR
# notes: huIgG1, kappa light chain
# B9: PSMB1157 conjugated to maleimide-PEG4-vcPAB-MMAF (antibody, human IgG1, lambda, V domains shown)
# VH: B1 VH
# VL: B1 VL
# modifications: maleimide-PEG4-vcPAB-MMAF and N-ethyl maleimide on reduced cysteines (sites not given)
# B10: PSMB1156 conjugated to maleimide-PEG4-vcPAB-MMAF (antibody, human IgG1, lambda, V domains shown)
# VH: B2 VH
# VL: not shown
# modifications: maleimide-PEG4-vcPAB-MMAF and N-ethyl maleimide on reduced cysteines (sites not given)
# B11: PSMB1154 conjugated to maleimide-PEG4-vcPAB-MMAF (antibody, human IgG1, lambda, V domains shown)
# VH: B3 VH
# VL: B3 VL
# modifications: maleimide-PEG4-vcPAB-MMAF and N-ethyl maleimide on reduced cysteines (sites not given)
# B12: PSMB1183 conjugated to maleimide-PEG4-vcPAB-MMAF (antibody, human IgG1, lambda, V domains shown)
# VH: B6 VH
# VL: B6 VL
# modifications: maleimide-PEG4-vcPAB-MMAF and N-ethyl maleimide on reduced cysteines (sites not given)
# B13: PSMB1157 conjugated to MC-GGFG-DX8951 (antibody, human IgG1, lambda, V domains shown)
# VH: B1 VH
# VL: B1 VL
# modifications: MC-GGFG-DX8951 on reduced cysteines, DAR 8.0
# B14: PSMB1156 conjugated to MC-GGFG-DX8951 (antibody, human IgG1, lambda, V domains shown)
# VH: B2 VH
# VL: not shown
# modifications: MC-GGFG-DX8951 on reduced cysteines, DAR 8.0
# B15: PSMB1154 conjugated to MC-GGFG-DX8951 (antibody, human IgG1, lambda, V domains shown)
# VH: B3 VH
# VL: B3 VL
# modifications: MC-GGFG-DX8951 on reduced cysteines, DAR 8.0
# B16: PSMB1183 conjugated to MC-GGFG-DX8951 (antibody, human IgG1, lambda, V domains shown)
# VH: B6 VH
# VL: B6 VL
# modifications: MC-GGFG-DX8951 on reduced cysteines, DAR 8.0
# Target: T1, human prostate-specific membrane antigen (PSMA), full length, on cells (human, UniProt Q04609 1-750)
# T1 construct: also called FOLH1; PSMA on C4-2B cells
# Test: flow cytometry on C4-2B cells (high PSMA), anti-human AF647 detection, four-parameter fit
# Protocol: The affinity of the purified antibodies was also determined on C4-2B, a cell line with high PSMA levels. Briefly, C4-2B cells were washed once with 1×PBS and incubated with 3 mls/T150 flask of cell dissociation buffer until detached, the cells were collected and strained through a […] sieve. Cells were resuspended at 0.5×10e6 cells/mL in staining buffer (BD #554657) and seeded at 25,000 cells/well in V bottom plate (Corning 3894). To each well, 50 μl of Ab 4-fold serially diluted in staining buffer from 120 nM (60 nM final) were added at 2× final concentration. Control mAbs were added at 2 μg/ml, 1 μg/ml final (controls were: —secondary only and isotype control). All primary antibodies were incubated with the cells for 60 min at 4° C. After the primary incubation, 100 μl staining buffer were added to all wells and the cells were washed by pelleting by centrifugation at 300×g 5 min and buffer removed by flicking the plate. Then cells were similarly washed again with 200 μl staining buffer. […] After 30 minutes incubation at 4° C., the cells were washed as described above with 150 ul staining buffer, followed by a final wash with 200 ul running buffer (Running buffer is staining buffer plus 1 mM EDTA and 0.1% pluronic acid). Cells were resuspended in 30 ul/well running buffer with 1:1000 Sytox Blue viability stain (Invitrogen #S34857) and stored at 4° C. until read on the flow cytometer. Plates were read on an IntelliCyt IQue 3 instrument. Briefly, cells were gated on live cells, then populations were gated on singlets. Antibody binding was assessed by AF647 fluorescence at 647 nm. Data was analyzed in GeneData Screener with signal/background AF647 fluorescence plotted against antibody concentration.
# T1 sequence (Q04609 whole entry): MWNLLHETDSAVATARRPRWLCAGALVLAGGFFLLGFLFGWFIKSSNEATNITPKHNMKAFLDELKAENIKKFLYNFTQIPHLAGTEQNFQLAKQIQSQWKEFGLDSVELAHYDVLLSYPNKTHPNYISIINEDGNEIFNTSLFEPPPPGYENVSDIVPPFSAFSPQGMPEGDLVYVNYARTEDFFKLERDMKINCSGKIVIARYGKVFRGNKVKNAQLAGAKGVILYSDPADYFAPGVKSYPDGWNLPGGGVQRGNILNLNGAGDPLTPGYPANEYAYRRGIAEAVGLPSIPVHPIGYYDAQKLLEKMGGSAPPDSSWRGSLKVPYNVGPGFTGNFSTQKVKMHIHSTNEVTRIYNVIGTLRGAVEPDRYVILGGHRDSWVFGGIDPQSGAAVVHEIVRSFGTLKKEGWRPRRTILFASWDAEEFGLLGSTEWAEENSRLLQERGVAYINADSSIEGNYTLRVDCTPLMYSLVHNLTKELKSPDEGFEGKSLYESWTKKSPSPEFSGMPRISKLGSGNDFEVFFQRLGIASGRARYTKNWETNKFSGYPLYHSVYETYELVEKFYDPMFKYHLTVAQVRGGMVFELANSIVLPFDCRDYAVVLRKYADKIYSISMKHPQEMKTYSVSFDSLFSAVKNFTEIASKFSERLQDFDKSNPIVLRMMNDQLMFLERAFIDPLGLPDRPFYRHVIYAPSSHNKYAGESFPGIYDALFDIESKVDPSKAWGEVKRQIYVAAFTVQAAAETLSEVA
row,Binder,EC50 [pM]
1,B1,381
2,B2,633
3,B3,306
4,B4,12400
5,B5,2520
6,B6,156
7,B7,13800
8,B8,2460

# Target: T2, PSMW39, human PSMA ECD (Lys44-Ala750), N-6xHis (human, UniProt Q04609 44-750)
# T2 construct: Made in Expi-CHO cells; also called PSMW39.002; recombinant human ECD
# Test: SPR (Biacore 8K), antibody captured on goat anti-Fc C1 chip, PSMA ECD as analyte, 1:1 Langmuir fit
# Protocol: The binding affinity of purified anti-PSMA antibodies to the recombinant human ECD was determined by surface plasmon resonance (SPR) using a BIACORE 8K instrument. The antibodies were captured on a goat anti-Fc antibody-modified C1 chip and titrated with 3-fold serial dilutions of PSMA antigen spanning concentrations of 1 nM to 11.1 nM. The association and dissociation were monitored for 3 and 15 minutes, respectively, using a flow rate of 50 μL/min. Raw binding data was referenced by subtracting the analyte binding signals from blanks and analyzed using a 1:1 Langmuir binding model using the Biacore Insight evaluation software to obtain the kinetics which were used to calculate the binding affinity.
# T2 sequence (Q04609 other isoform, or with tags, fused parts or gaps): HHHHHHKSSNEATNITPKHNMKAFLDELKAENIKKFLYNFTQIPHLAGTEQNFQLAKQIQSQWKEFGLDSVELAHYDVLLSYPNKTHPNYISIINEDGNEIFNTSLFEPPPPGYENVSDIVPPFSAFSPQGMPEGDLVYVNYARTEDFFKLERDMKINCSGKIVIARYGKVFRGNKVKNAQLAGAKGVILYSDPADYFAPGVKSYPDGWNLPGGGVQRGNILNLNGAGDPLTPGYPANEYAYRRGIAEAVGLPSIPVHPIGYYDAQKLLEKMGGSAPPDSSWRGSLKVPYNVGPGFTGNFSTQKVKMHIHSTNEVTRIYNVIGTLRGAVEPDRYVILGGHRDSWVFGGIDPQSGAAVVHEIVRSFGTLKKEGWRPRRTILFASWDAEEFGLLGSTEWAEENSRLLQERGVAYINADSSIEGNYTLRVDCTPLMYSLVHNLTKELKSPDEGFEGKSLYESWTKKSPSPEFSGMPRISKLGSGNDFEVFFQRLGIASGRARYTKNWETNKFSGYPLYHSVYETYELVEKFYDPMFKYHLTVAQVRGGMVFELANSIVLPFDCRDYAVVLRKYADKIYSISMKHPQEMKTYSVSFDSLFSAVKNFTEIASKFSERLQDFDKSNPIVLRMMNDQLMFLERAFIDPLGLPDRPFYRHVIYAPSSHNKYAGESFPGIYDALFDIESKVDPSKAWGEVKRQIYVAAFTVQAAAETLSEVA
Binder,Kd [pM],koff [s⁻¹],kon [M⁻¹ s⁻¹]
B1,1420,0.000274,194000
B2,548,0.000168,306000
B3,1090,0.00019,174000
B4,970,2.85e-05,29400
B5,1160,6.65e-05,57300
B6,928,0.000401,432000
B7,9450,0.000101,10700
B8,540,2.85e-05,52700

# Target: T1, human prostate-specific membrane …
# Test: cell-based or functional assay
Binder,"C4-2B IC50 (cytotoxicity, vcMMAF ADC, DAR 3.6, 72 h) [pM]","C4-2B IC50 (cytotoxicity, vcMMAF ADC, DAR 2.9, 72 h) [pM]","C4-2B IC50 (cytotoxicity, vcMMAF ADC, DAR 4, 72 h) [pM]"
B9,30,–,–
B10,–,40,–
B11,–,–,30
B12,30,–,–

# Target: T1, human prostate-specific membrane …
# Test: cell-based or functional assay
# Remark: another data set of the same source
row,Binder,"IC50 (cytotoxicity on 22RV1 cells, DX8951 ADC, DAR 8, 6 d) [pM]"
1,B13,2200
2,B14,1400
3,B15,800
4,B16,700

# From patent US20230122503A1 (Janssen / Centocor, published 2023)
